Article PMC7949148

Columns and labels:
[1] = target: Trypanosoma brucei FoF1–ATP synthase complex (Trypanosoma brucei (endogenous in PCF and BSF cells)); assay: native gel or EMSA; blue native electrophoresis of DDM-lysed (2% PCF, 4% BSF) mitochondria, 3 to 12% native gradient gel, 4 °C; Western blot with antibodies against subunit β and Tb2; cells noninduced or with Tb1 or OSCP silenced or ablated
[2] = target: Trypanosoma brucei FoF1–ATP synthase complex (Trypanosoma brucei (endogenous in PCF and BSF cells)); assay: native gel or EMSA; high-resolution clear native electrophoresis of digitonin-lysed (4 mg/mg protein) crude mitochondrial vesicles from PCF and BSF parasites, 3 to 12% native gradient gel, 4 °C; Western blot with antibodies against p18 and Tb1

stoichiometry N [1]: 2 | stoichiometry N [2]: 2
Substance: Trypanosoma brucei FoF1–ATP synthase complex
